Residue numbers refer to the chain shown, from its start.
T1: biotinylated CRH (Homo sapiens, UniProt P06850)
T1 construct: purchased GL Biochem 784751
T1 sequence (P06850 154-194): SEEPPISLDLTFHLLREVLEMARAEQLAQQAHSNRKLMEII

B1: PR302334-24: humanized variant of Series 9 mAb PR302334; VH SEQ ID NO: 275, VL SEQ ID NO: 328 (antibody, V domains shown)
VH: EVQLVESGGGLVKPGGSLRLSCAASGFTFSTYAMSWVRQAPGKGLEWVASIRSGGTTYYPDSVKGRFTISRDNAKNSLYLQMNSLRAEDTAVYYCTRGIDWGQGTTVTVSS
VL: DIVMTQSPDSLAVSLGERATINCKASQSVNNDVAWYQQKPGQPPRLLIYYASNRYTGVPDRFSGSGSGTDFTLTISSLQAEDLAVYFCQQDYSSWTFGGGTKVEIK
modifications: PR302334-16 VH, PR302334-24 VH, PR302334-25 VH; PR302334-10 VL, PR302334-24 VL, PR302334-26 VL, PR302334-4 VL
B2: PR302334-26: humanized variant of Series 9 mAb PR302334; VH SEQ ID NO: 277, VL SEQ ID NO: 328 (antibody, V domains shown)
VH: B1 VH with K13Q, A74S
VL: B1 VL
modifications: PR302334-18 VH, PR302334-26 VH, PR302334-27 VH; PR302334-10 VL, PR302334-24 VL, PR302334-26 VL, PR302334-4 VL

Legend:
[1] = system: constitutively high plasma ACTH in Mrap1 KO mice; test: Mrap1 KO mice constitutively high ACTH model; type: in vivo, mouse; conditions: for plasma ACTH concentrations in Mrap1 KO mice: single dose 20 mg/kg
Protocol: 8-10 week old wildtype female C57BL/6 mice were obtained from Charles River Laboratories. Mrap1 KO mice were obtained from Queen Mary University of London, UK. SSR125543A, a small molecule CRHR1 antagonist, was obtained from Axon Medchem (Cat #Axon 1799). Mouse Corticosterone (55-Corms-E01) and adrenocorticotropic hormone (ACTH) ELISA kits (21-ACTHU-E01) were obtained from ALPCO, USA. All procedures were carried out in accordance with the Guide for the Care and Use of Laboratory Animals of the National Institutes of Health. Protocols were approved by Charles River Laboratories Institutional Animal Care and Use Committee (IACUC).
To generate Mrap1 KO mice, Mrap1−/− male mice were bred with Mrap1+/− female mice. Corticosterone hormone replacement was performed by administering 50 μg/ml in drinking water to breeder cages when female mice were pregnant and their pregnancies palpable (approximately embryonic day 10). Drinking water was changed weekly, and treatment was stopped at weaning. Mice were uniquely identified with ear tags at the time of tail clipping to match future genotype with each mouse. DNA was extracted from tail tissue and used to genotype mice.
[…] On day 2 or 3, 14 and 28, 200 μl of blood was collected in EDTA tubes from the submandibular vein of each mouse. Plasma was separated using a refrigerated centrifuge (4° C. at 500×g for 10 min) and snap-frozen in dry ice for subsequent ACTH ELISA measurement.

biotinylated CRH = target: T1, biotinylated CRH; test: Affinity determination with Octet; type: binding
How it was run: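 Biolayer interferometry: 30 nM biotinylated CRH loaded onto streptavidin sensors, 2-fold antibody dilutions as analyte in PBS kinetics buffer. Association 180 s, dissociation 800 s, glycine pH 1.5 regeneration; double-referenced data fitted for affinity.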

mouse CRHR2 = test: CRH-induced luciferase reporter blocking assay, CHO-CRE-mCRHR2 cells; type: cell-based; conditions: CHO-CRE-mCRHR2 cells, 5 nM CRH
How it was run: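 CHO-CRE cells stably expressing mouse CRHR2 were seeded overnight, then given serially diluted antibodies (8 points, 1:4) together with CRH at 5 nM final. After 4–6 h at 37 °C, CRE-driven luciferase was read by Bio-Glo luminescence.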

human CRHR2 = test: CRH-induced luciferase reporter blocking assay, CHO-CRE-hCRHR2 cells; type: cell-based; conditions: CHO-CRE-hCRHR2 cells, 0.1 nM CRH
How it was run: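 CHO-CRE reporter cells stably expressing mouse or human CRHR2 were treated with serially diluted antibodies (8 points, 1:4) plus CRH at final 5 nM (mCRHR2) or 0.1 nM (hCRHR2), 4-6 hours at 37° C. CRE-driven luciferase read by luminescence after 10 min with detection reagent.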

Row | Molecule | inhibition of ACTH versus SSR125543A ([1]; Mrap1 KO mice) | efficacy versus SSR125543A, ACTH levels ([1]; Mrap1 KO mice, day 2 and day 14, figure legend, doses not given) | efficacy in reducing plasma ACTH levels versus SSR125543A at 30 mg/kg ([1]; Mrap1 KO mice, mAb 5 mg/kg) | efficacy in reducing plasma ACTH levels versus SSR125543A at 30 mg/kg ([1]; Mrap1 KO mice, mAb 10 mg/kg) | efficacy in reducing plasma ACTH levels versus SSR125543A at 30 mg/kg ([1]; Mrap1 KO mice, mAb 20 mg/kg) | plasma ACTH concentrations in Mrap1 KO mice [1] | kdis (biotinylated CRH) [s⁻¹] | kon (biotinylated CRH) [M⁻¹ s⁻¹] | IC50 (mouse CRHR2) [nM] | IC50 (human CRHR2) [nM]
1 | B1 | more complete inhibition | superior efficacy | more efficacious | more efficacious | more efficacious | significantly reduced | <1e-07 | 606000 | 2.03 | 2.01
2 | B2 | – | – | – | – | – | markedly reduced | <1e-07 | 329000 | 1.47 | 1.24
